Data from publication PMC2553836, “Control of Jasmonate Biosynthesis and Senescence by miR319 Targets”.

Molecular target: T1, TCP4 N-terminal fragment (pRSETC-TCP4-1, TCP4-N224) (Arabidopsis thaliana, UniProt Q8LPR5 1-224)
T1 sequence: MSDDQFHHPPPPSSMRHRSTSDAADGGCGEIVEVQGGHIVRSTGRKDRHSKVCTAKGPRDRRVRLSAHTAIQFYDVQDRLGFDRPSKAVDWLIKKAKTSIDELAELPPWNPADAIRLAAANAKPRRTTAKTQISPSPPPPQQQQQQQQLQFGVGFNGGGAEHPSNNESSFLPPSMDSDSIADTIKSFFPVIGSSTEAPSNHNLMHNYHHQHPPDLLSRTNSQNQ
Experiment: EMSA; 20 mM HEPES-KOH pH 7.8, 100 mM KCl, 1 mM EDTA, 0.1% BSA, 10 ng herring sperm DNA, 10% glycerol, ~10 fmol probe, 5-100 ng protein in 10 ul, 30 min room temperature; 6% native gel, 0.5x TBE
Conditions: protein: recombinant; tags: His; chain copies: 2; label: 32P-dCTP (Klenow) as probe

B1: TCP4 consensus wild type (dsDNA)
DNA 1: AGATGGGGGACCACATAGATGT
DNA 2: ACATCTATGTGGTCCCCCATCT
binding result: binds
